Literature values, collected in PMC2820514.

Biological target: CaMKII monomer (UniProt Q9UQM7)

CaMKII monomer (from UniProt Q9UQM7)
Kd: 1300 nM
